The text below walks through data of publication PMC6431256 (Biochemistry, 2018).

For one assay, the target named is full-length Pin1 (human, UniProt Q13526 1-163). Briefly: NMR titration.
For assay [1], the target named is Pin1 WW domain (Pin1WW, residues 1–41) (human, UniProt Q13526 1-41). Briefly: NMR titration.

Non-standard residues stand in square brackets, D forms with d. No end group written: not given here. pT = C[C@@H](OP(=O)(O)O)[C@H](N)C(=O)O; pS = N[C@@H](COP(=O)(O)O)C(=O)O

Chain of Pin1 WW domain (Pin1WW, residues 1–41) (Q13526 1-41): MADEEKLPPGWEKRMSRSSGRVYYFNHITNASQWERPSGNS
Chain of full-length Pin1 (Q13526 whole entry, the tested form may be a part): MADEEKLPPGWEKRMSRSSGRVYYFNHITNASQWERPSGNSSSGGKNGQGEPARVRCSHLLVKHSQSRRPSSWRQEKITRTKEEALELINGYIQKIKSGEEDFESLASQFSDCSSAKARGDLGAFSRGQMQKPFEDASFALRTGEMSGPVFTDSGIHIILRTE

For orientation: Kd means the constant that tells how readily two partners part at equilibrium. Low readings indicate higher affinity, high ones lower affinity. As to KKAVK[pS]PAKAKAW [histone H1.1 phosphopeptide KKAVKpSPAKAKAW], the Kd was found to be 500 µM with full-length Pin1 and 890 µM in assay [1].
KATGAA[pT]PKKSAKW [histone H1.4 phosphopeptide KATGAApTPKKSAKW]: the results for the dissociation constant Kd (with full-length Pin1; in assay [1]) were 180 µM and 111 µM, respectively.
